Changes are numbered by the printed parent chain.
B1: cx12032 (B10a.v2.1 VHH x hz4A01v51 VHH) (bispecific antibody)
chain: EVQLLESGGGEVQPGGSLRLSCAASGSIANVDLMAWHRQAPGKQREPIAVINDAGSTYYAESVKGRFTISRDNAKNTLYLQMNSLRAEDTAVYYCNTATWRGGERYADWGQGTLVTVKPEVQLVESGGGEVQPGGSLRLSCAASGFTFSTSGMVWVRQAPGKGLEWVSTISDDARITVYAESVKGRFTISRDNAKNTVYLQMNSLRAEDTAVYYCATYRAGSRIGSYEDYYRGQGTLVTVKPGG
B2: cx12003 (bispecific antibody)
single polypeptide, format of FIG. 5(i): QVQLLESGGGEVQPGGSLRLSCAASGSIANVDLMAWHRQAPGKQREPIAVINDAGSTYYAESVKGRFTISRDNAKNTLYLQMNSLRAEDTAVYYCNTATWRGGERYADWGQGTLVTVEPGSGGGSQVQLLESGGGEVQPGGSLRLSCAASGFTFSTSGMVWVRQAPGKGLEWVSTISDDARITVYAESVKGRFTISRDNAKNTVYLQMNSLRAEDTAVYYCATYRAGSRIGSYEDYYRGQGTLVTVEPGG
notes: anti-FcRn VHH linked to anti-albumin VHH
B3: cx12006 (bispecific antibody)
single polypeptide, format of FIG. 5(i): B2 single polypeptide, format of FIG. 5(i) with E11K, E136K
notes: as for B2
B4: cx12008 (bispecific antibody)
single polypeptide, format of FIG. 5(i): B2 single polypeptide, format of FIG. 5(i) with Q1E, E118R, Q126E, L130V, E247R
notes: as for B2
B5: cx12007 (B10a.v2.4 VHH x hz4A01v51.12 VHH) (bispecific antibody)
chain: B2 single polypeptide, format of FIG. 5(i) with Q1E, E11K, Q126E, E136K
B6: 4A01v3 (Fc fusion)
VHH: EVQLVESGGGEVQPGGSLRLSCAASGFAFSTSGMVWVRQAPGKGLEWVSTISDDARIIRYAESVKGRFTISRDNAKNTLYLQMNSLRAEDTAVYYCATYRAGSRIGSYEDYYRGQGTLVTVKP
notes: also called Hz4A01v3; not shown: Human Fc carrier and its linker
B7: 4A01v3-5 (Fc fusion)
VHH: B6 VHH with V37Y
notes: also called Hz4A01v3-5; not shown: Human Fc carrier and its linker
B8: 4A01v3-8 (Fc fusion)
VHH: B6 VHH with R113W
notes: also called Hz4A01v3-8; not shown: Human Fc carrier and its linker
B9: 4A01v1 (Fc fusion)
VHH: B6 VHH with A55S
notes: also called Hz4A01v1; not shown: Human Fc carrier and its linker
B10: 4A01v3-7 (Fc fusion)
VHH: B6 VHH with L79V
notes: also called Hz4A01v3-7; not shown: Human Fc carrier and its linker
B11: 4A01v9 (Fc fusion, not shown: a dimerising Fc or GST; small tags and cut ends)
VHH: B6 VHH with A55T
notes: also called Hz4A01v9
B12: 4A01v3-4 (Fc fusion)
VHH: B6 VHH with V35S
notes: also called Hz4A01v3-4; not shown: Human Fc carrier and its linker
B13: 4A01v3-1 (Fc fusion, not shown: a dimerising Fc or GST; small tags and cut ends)
VHH: B6 VHH with A28T
notes: also called Hz4A01v3-1
B14: 4A01v3-3 (Fc fusion, not shown: a dimerising Fc or GST; small tags and cut ends)
VHH: B6 VHH with V35A
notes: also called Hz4A01v3-3
B15: 4A01v5 (Fc fusion, not shown: a dimerising Fc or GST; small tags and cut ends)
VHH: B6 VHH with D54E, A55G
notes: also called Hz4A01v5
B16: 4A01v8 (Fc fusion, not shown: a dimerising Fc or GST; small tags and cut ends)
VHH: B6 VHH with D54N
notes: also called Hz4A01v8
B17: 4A01v4 (Fc fusion, not shown: a dimerising Fc or GST; small tags and cut ends)
VHH: B6 VHH with D54E, A55S
notes: also called Hz4A01v4
B18: 4A01v6 (Fc fusion, not shown: a dimerising Fc or GST; small tags and cut ends)
VHH: B6 VHH with D54S, A55G
notes: also called Hz4A01v6
B19: cx11383 (B10a.v1 VHH x hz4A01v51 VHH) (bispecific antibody)
chain: EVQLLESGGGEVQPGGSLRLSCTASGSIANVDMMAWHRQAPGKQREPIAVINDGGSTSYADSVKGRFTISRDNAKNTLYLQMSSLRAEDTAVYYCNTATWRGGERYADWGQGTLVTVKPGSGGGSEVQLVESGGGEVQPGGSLRLSCAASGFTFSTSGMVWVRQAPGKGLEWVSTISDDARITVYAESVKGRFTISRDNAKNTVYLQMNSLRAEDTAVYYCATYRAGSRIGSYEDYYRGQGTLVTVKPGG

These binders were tested against T1, Human serum albumin (HSA) (human, UniProt P02768 25-609) (assay: ELISA on coated human albumin, pH 7.4, HRP detection antibody, A450).
T1 construct: also called human albumin; recombinant human albumin
T1 sequence (P02768 25-609): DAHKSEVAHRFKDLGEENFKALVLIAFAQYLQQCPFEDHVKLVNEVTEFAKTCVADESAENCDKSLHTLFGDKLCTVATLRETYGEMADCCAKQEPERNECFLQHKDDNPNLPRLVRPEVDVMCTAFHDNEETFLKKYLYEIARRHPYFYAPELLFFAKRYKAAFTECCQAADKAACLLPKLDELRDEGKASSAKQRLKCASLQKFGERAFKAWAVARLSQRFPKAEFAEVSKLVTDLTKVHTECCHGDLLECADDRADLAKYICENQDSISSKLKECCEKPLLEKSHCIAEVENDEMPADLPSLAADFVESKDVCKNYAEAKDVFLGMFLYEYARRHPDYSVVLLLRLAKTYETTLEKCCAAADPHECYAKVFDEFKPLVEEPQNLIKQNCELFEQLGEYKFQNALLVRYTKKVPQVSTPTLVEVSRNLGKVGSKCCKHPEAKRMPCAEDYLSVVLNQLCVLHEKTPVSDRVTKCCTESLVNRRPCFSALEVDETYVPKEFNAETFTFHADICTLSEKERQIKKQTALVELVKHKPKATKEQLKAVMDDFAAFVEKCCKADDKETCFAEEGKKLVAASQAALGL
Experimental: (§1) 96-well ELISA plates were coated with albumin protein in PBS overnight at 4° C., washed with PBS-T and then blocked with 5% milk powder in PBS-T for 1 h at room temperature. Serial dilutions of test articles were prepared in PBS pH 7.4 or a buffer containing 20 mM His, 150 mM NaCl, pH 5.5 and added to the plates. Plates were incubated for 1 h at room temperature. After the incubation cells were washed in the respective buffer and then incubated for 30 min at room temperature with a HRP-conjugated antibody detecting the polypeptides. Plates were washed in their respective buffers and TMB substrate was added and color allowed to develop. TMB substrate was stopped with an equal volume of stop solution (1M H₂SO₄). Absorbance at 450 nm was measured with a 96 well plate reader.

| EC50 (read off the curve) [nM] | Binder |
| --- | --- |
| ~0.3 | B1 |

Biological target: T1, Human serum albumin (HSA)
Assay: as above
Remark: another data set of the same source
Experimental: as §1

| EC50 (read off the curve) [nM] | Binder |
| --- | --- |
| ~0.4 | B2 |
| ~0.4 | B3 |
| ~0.4 | B4 |
| ~0.4 | B5 |

Each binder was assayed against T2, human FcRn extracellular domain (ECD) fused to a transmembrane domain and an intracellular citrine, with … (human) (assay: flow cytometry, CHO cells transiently expressing human FcRn ECD-TM-citrine and B2M, pH 6, AF647 detection antibody).
T2 construct: also called human FcRn overexpressed on CHO cells; FcRn transfected CHO cells
Experimental: (§2) Binding of anti-FcRn VHH polypeptides to human FcRn at neutral (7.4) or endosomal (6) pH was tested by flow cytometry using a CHO-based overexpression system or isolated human peripheral blood mononuclear cells (PBMC).
(§3) CHO cells were plated in 96-well plates at 50,000 cells per well and resuspended in PBS, pH 7.4 or a buffer containing 20 mM His, 150 mM NaCl, pH 6. Serial dilutions of test articles were prepared at 2× the final concentration in the buffers described above (pH 7.4 or pH 6) and added to the cell suspensions. Plates were incubated for 60 minutes at 4° C. After the incubation cells were washed in the respective buffer and then incubated for 30 minutes at 4° C. with a fluorescently labeled (AF647) antibody detecting the VHH polypeptides. Binding of the detection antibody to FcRn on transfected cells (citrine positive) was measured after a final wash using an iQue Screener (Sartorius).

| EC50 (read off the curve) [nM] | Binder |
| --- | --- |
| ~0.5 | B2 |
| ~0.4 | B3 |
| ~0.4 | B4 |
| ~0.4 | B5 |

The binders below were run against T1, Human serum albumin (HSA) (assay: ELISA on coated human albumin, anti-human Fc HRP, A650, one site-total binding fit).
Experimental: (§4) Medisorp plates were coated with albumin protein at 2 μg/ml, 50 μl/well at 4° C. overnight (human, murine, and rat albumin-Sigma, cynomolgus monkey albumin-Abcam). 1× Fish Gelatin (blocking agent, Bethyl Laboratories) was added to albumin-coated wells followed by a 1 hour incubation at RT. Titrations of sdAb fusion proteins (starting at 100 nM, across 1:3 or down 1:4) were added and incubated for 1 hour at RT. Plates were washed 3 times with 0.1% D-PBST, and then anti-human Fc HRP antibody (1:2000 in 0.1% D-PBST, Jackson) was added and incubated for 30 minutes at RT. Plates were washed 3 times with 0.1% D-PBST, and then TMB substrate was added. Absorbance at 650 nm was read on a plate reader (Molecular Devices) and data were plotted using equation one site-total binding (Model: Y=Bmax*X/(Kd+X)+NS*X+Background, GraphPad Prism).

| Kd [nM] | Bmax [A650] | Binder |
| --- | --- | --- |
| 0.124 |  | B6 |
| 0.121 | 1.39 | B7 |
| 0.136 |  | B8 |
| 0.139 | 1.34 | B9 |
| 0.121 | 1.4 | B10 |
| 0.115 | 1.35 | B11 |
| 0.151 | 1.43 | B12 |
| 0.123 | 1.32 | B13 |
| 0.129 | 1.36 | B14 |

The binders below were run against T3, Rat serum albumin (RSA) (rat, UniProt P02770 25-608) (assay: ELISA on coated rat albumin, anti-human Fc HRP, A650, one site-total binding fit).
T3 construct: Bought protein (Sigma); also called rat albumin
T3 sequence (P02770 25-608): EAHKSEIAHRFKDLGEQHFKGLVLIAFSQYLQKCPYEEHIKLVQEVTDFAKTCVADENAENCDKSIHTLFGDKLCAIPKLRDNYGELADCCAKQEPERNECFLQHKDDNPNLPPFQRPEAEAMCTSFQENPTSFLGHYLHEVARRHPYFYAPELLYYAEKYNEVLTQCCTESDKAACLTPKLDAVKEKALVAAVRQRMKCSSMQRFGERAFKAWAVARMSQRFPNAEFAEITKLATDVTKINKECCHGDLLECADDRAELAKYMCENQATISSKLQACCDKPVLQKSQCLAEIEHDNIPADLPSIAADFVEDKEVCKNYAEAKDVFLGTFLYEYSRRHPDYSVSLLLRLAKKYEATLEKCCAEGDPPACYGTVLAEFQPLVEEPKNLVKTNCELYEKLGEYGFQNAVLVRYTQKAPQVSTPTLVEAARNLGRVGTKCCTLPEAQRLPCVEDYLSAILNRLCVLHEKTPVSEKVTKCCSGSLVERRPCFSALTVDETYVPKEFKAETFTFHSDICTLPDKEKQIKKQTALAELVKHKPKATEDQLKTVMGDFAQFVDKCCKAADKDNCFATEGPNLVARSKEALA
Experimental: as §4

| Bmax [A650] | Kd [nM] | Binder |
| --- | --- | --- |
| 1 | 0.26 | B15 |
| 1.01 | 0.328 | B16 |
| 0.972 | 0.32 | B17 |
| 1.02 | 0.273 | B18 |

The binders below were run against T4, Cynomolgus monkey serum albumin (CSA) (cynomolgus monkey, UniProt A2V9Z4 25-608) (assay: ELISA on coated cynomolgus monkey albumin, anti-human Fc HRP, A650, one site-total binding fit).
T4 construct: Bought protein (Abcam); also called cynomolgus monkey albumin
T4 sequence (A2V9Z4 25-608): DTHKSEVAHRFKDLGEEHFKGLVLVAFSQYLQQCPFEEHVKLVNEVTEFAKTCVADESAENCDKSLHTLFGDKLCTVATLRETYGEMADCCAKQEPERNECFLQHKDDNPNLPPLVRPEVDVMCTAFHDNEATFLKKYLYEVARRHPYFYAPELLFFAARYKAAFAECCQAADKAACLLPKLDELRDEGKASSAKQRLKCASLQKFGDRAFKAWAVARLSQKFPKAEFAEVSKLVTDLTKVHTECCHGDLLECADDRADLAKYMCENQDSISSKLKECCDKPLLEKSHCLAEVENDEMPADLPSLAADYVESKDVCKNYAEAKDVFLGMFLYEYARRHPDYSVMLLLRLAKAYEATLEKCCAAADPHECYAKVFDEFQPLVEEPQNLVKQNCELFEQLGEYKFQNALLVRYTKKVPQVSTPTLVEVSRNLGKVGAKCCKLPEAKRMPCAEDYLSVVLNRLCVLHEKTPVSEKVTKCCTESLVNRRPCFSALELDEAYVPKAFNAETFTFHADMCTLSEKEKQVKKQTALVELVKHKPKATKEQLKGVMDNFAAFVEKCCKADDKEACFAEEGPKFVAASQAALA
Experimental: as §4

| Bmax [A650] | Kd [nM] | Binder |
| --- | --- | --- |
| 0.994 | 0.338 | B6 |
| 0.939 | 0.203 | B15 |
| 0.954 | 0.247 | B17 |
| 0.961 | 0.225 | B18 |

Each binder was assayed against T2, human FcRn extracellular domain (ECD) … (assay: flow cytometry, HEK 293 cells transiently expressing human FcRn ECD-TM-citrine and B2M, pH 6; blocked ligand: biotinylated human IgG at 1 µM, detected with streptavidin-AF647).
Experimental: 50,000 transiently transfected HEK 293 cells were plated in 96-well plates and resuspended in 20 mM His, 150 mM NaCl, pH 6. Serial dilutions of test articles were prepared at 2× the final concentration in the buffer described above and added to the cell suspensions. Plates were incubated for 60 minutes at 4° C. […] Cells were then washed in the buffer described above and subsequently incubated for 30 minutes at 4° C. with a fluorescently labeled (AF647) streptavidin to detect IgG binding to FcRn. Binding of streptavidin to cells expressing FcRn (citrine positive) was measured after a final wash using an iQue Screener (Sartorius). The data were plotted and analyzed using GraphPad Prism analysis software.

| IC50 (read off the curve) [nM] | Binder |
| --- | --- |
| ~7 | B19 |

Each binder was assayed against T1, Human serum albumin (HSA) (assay: ELISA on coated human albumin, pH 5.5, HRP detection antibody, A450).
Experimental: as §1

| EC50 (read off the curve) [nM] | Binder |
| --- | --- |
| ~0.4 | B3 |
| ~0.4 | B4 |
| ~0.4 | B5 |

Biological target: T2, human FcRn extracellular domain (ECD) …
Assay: flow cytometry, CHO cells transiently expressing human FcRn ECD-TM-citrine and B2M, pH 6, AF647 detection antibody
Remark: another data set of the same source
Experimental: as §2, §3

| EC50 (read off the curve) [nM] | Binder |
| --- | --- |
| ~0.6 | B1 |

Biological target: T1, Human serum albumin (HSA)
Assay: ELISA on coated human albumin, anti-human Fc HRP, A650, one site-total binding fit
Remark: another data set of the same source
Experimental: as §4

| Bmax [A650] | Kd [nM] | Binder |
| --- | --- | --- |
| 0.957 | 0.276 | B15 |
| 0.955 | 0.428 | B16 |
| 0.947 | 0.378 | B17 |
| 0.94 | 0.332 | B18 |

Each binder was assayed against T5, human FcRn/B2m heterodimer protein (human, UniProt P55899 24-297; P61769 21-119, limits assumed) (assay: ELISA on coated human FcRn/B2m heterodimer, pH 7.4, HRP detection antibody, A450).
T5 construct: also called FcRn (ELISA)
Experimental: 96-well ELISA plates were coated with human FcRn/B2m heterodimer protein in PBS overnight at 4° C., washed with PBST and then blocked with 3% BSA in PBST for 1 h at RT. Serial dilutions of test articles were prepared in PBST pH 7.4 and added to the plates. Plates were incubated for 1 h at room temperature. After the incubation cells were washed in the PBST and then incubated for 1 h at room temperature with a horse radish peroxidase (HRP)-conjugated antibody detecting the polypeptides. Plates were washed with PBS-T followed by addition of TMB substrate and color allowed to develop. TMB substrate was stopped with an equal volume of stop solution (1M H₂SO₄). Absorbance at 450 nm was measured with a 96 well plate reader (Emax, Molecular Devices). All data were plotted and analyzed using GraphPad Prism analysis software.

| binding result | Binder |
| --- | --- |
| binds | B19 |

What follows are binders tested against T6, Murine serum albumin (MSA) (mouse, UniProt P07724 25-608) (assay: ELISA on coated murine albumin, anti-human Fc HRP, A650, one site-total binding fit).
T6 construct: Bought protein (Sigma); also called murine albumin; mouse albumin
Experimental: as §4

| Kd [nM] | Bmax [A650] | Binder |
| --- | --- | --- |
| 0.121 |  | B6 |
| 0.112 | 1.31 | B7 |
| 0.143 |  | B8 |
| 0.129 | 1.35 | B9 |
| 0.111 | 1.32 | B10 |
| 0.112 | 1.3 | B11 |
| 0.241 | 1.4 | B12 |
| 0.109 | 1.29 | B13 |
| 0.142 | 1.35 | B14 |

Biological target: T6, Murine serum albumin (MSA)
Assay: as above
Remark: another data set of the same source
Experimental: as §4

| Bmax [A650] | Kd [nM] | Binder |
| --- | --- | --- |
| 1.09 | 0.189 | B15 |
| 1.1 | 0.226 | B16 |
| 1.1 | 0.25 | B17 |
| 1.09 | 0.206 | B18 |

These binders were tested against T2, human FcRn extracellular domain (ECD) … (assay: flow cytometry, CHO cells transiently expressing human FcRn ECD-TM-citrine and B2M, pH 7.4, AF647 detection antibody).
Experimental: as §2, §3

| EC50 (read off the curve) [nM] | Binder |
| --- | --- |
| ~0.5 | B1 |

Biological target: T4, Cynomolgus monkey serum albumin (CSA)
Assay: ELISA on coated cynomolgus monkey albumin, anti-human Fc HRP, A650, one site-total binding fit
Remark: another data set of the same source
Experimental: as §4

| Bmax [A650] | Kd [nM] | Binder |
| --- | --- | --- |
| 1.34 | 0.126 | B7 |
| 1.35 | 0.147 | B8 |
| 1.31 | 0.157 | B9 |
| 1.31 | 0.118 | B10 |
| 1.29 | 0.117 | B11 |
| 1.37 | 0.181 | B12 |
| 1.29 | 0.127 | B13 |
| 1.35 | 0.142 | B14 |

Biological target: T3, Rat serum albumin (RSA)
Assay: ELISA on coated rat albumin, anti-human Fc HRP, A650, one site-total binding fit
Remark: another data set of the same source
Experimental: as §4

| Kd [nM] | Bmax [A650] | Binder |
| --- | --- | --- |
| 0.162 |  | B6 |
| 0.162 | 1.35 | B7 |
| 0.169 |  | B8 |
| 0.184 | 1.28 | B9 |
| 0.123 | 1.35 | B10 |
| 0.144 | 1.27 | B11 |
| 0.252 | 1.41 | B12 |
| 0.13 | 1.28 | B13 |
| 0.152 | 1.32 | B14 |

Biological target: T2, human FcRn extracellular domain (ECD) …
Assay: flow cytometry, CHO cells transiently expressing human FcRn ECD-TM-citrine and B2M, pH 7.4, AF647 detection antibody
Remark: another data set of the same source
Experimental: as §2, §3

| EC50 (read off the curve) [nM] | Binder |
| --- | --- |
| ~0.3 | B2 |
| ~0.3 | B3 |
| ~0.7 | B4 |
| ~0.3 | B5 |

From patent US20250353911A1 (INHIBRX BIOSCIENCES, published 2025)
